Results: publication PMC10755698
Like-named read-outs stand apart in the source and are kept apart here.

B1: 12 nt RNA (ssRNA)
RNA: ACACAAAGACCC
B2: 27 nt RNA (ssRNA)
RNA: ACCAACACACCAACAACAACCUGUGCG
B3: 18 nt RNA (ssRNA)
RNA: CGGACACACAAAAAGAAA
B4: 25 nt RNA (ssRNA)
RNA: GCCUAGGAUCCACUGUGCGUGUUGU
B5: 9 nt RNA (ssRNA)
RNA: UAGGAAUCU

Experiments:
Assay in all cases: native MS
[1] = target: T1, Lassa virus nucleoprotein NP (wild type) (Lassa virus, AV strain, UniProt Q9DQX7)
[2] = target: T1, Lassa virus nucleoprotein NP (wild type); remark: listed apart in the source
[3] = target: T1, Lassa virus nucleoprotein NP (wild type); remark: listed apart in the source

Binder	binding result [1]	binding result [2]	other results
B1	binds		
B2		binds	
B3			binding result [3]: binds
B4		binds	
B5	binds		
